T1: G9a and GLP (Homo sapiens, UniProt Q96KQ7+Q9H9B1)
T1 sequence (Q96KQ7 2-1210 limits assumed): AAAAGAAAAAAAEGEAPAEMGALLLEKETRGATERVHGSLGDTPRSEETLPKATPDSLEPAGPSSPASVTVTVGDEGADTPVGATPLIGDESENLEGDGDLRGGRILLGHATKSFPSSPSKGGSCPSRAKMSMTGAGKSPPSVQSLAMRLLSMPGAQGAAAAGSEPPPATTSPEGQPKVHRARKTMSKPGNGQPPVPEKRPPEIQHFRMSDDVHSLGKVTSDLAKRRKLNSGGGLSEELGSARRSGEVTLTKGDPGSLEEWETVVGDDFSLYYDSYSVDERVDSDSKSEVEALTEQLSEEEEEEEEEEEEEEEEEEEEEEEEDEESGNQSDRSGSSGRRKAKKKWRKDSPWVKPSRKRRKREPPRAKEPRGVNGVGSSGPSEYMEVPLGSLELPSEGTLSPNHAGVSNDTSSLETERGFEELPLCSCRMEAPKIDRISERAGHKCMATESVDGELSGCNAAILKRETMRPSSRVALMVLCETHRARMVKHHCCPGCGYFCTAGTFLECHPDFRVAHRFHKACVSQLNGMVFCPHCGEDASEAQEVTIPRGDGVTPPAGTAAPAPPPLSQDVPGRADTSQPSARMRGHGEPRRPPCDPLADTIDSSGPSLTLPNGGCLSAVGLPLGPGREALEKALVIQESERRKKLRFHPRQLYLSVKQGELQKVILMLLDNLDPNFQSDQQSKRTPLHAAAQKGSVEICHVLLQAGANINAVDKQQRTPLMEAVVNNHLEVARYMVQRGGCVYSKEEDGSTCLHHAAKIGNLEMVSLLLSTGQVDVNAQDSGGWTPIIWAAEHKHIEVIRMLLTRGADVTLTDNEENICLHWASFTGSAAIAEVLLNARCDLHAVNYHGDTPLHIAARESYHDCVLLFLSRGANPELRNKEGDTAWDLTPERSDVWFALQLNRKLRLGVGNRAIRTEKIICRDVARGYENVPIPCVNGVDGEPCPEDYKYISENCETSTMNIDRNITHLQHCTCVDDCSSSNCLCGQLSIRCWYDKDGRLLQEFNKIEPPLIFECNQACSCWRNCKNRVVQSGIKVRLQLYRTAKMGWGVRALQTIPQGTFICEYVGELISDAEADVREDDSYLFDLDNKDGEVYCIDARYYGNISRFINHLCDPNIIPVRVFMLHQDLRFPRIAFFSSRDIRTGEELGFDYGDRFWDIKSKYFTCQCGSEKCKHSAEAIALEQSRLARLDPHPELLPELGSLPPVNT
T1 sequence (Q9H9B1 2-1298 limits assumed): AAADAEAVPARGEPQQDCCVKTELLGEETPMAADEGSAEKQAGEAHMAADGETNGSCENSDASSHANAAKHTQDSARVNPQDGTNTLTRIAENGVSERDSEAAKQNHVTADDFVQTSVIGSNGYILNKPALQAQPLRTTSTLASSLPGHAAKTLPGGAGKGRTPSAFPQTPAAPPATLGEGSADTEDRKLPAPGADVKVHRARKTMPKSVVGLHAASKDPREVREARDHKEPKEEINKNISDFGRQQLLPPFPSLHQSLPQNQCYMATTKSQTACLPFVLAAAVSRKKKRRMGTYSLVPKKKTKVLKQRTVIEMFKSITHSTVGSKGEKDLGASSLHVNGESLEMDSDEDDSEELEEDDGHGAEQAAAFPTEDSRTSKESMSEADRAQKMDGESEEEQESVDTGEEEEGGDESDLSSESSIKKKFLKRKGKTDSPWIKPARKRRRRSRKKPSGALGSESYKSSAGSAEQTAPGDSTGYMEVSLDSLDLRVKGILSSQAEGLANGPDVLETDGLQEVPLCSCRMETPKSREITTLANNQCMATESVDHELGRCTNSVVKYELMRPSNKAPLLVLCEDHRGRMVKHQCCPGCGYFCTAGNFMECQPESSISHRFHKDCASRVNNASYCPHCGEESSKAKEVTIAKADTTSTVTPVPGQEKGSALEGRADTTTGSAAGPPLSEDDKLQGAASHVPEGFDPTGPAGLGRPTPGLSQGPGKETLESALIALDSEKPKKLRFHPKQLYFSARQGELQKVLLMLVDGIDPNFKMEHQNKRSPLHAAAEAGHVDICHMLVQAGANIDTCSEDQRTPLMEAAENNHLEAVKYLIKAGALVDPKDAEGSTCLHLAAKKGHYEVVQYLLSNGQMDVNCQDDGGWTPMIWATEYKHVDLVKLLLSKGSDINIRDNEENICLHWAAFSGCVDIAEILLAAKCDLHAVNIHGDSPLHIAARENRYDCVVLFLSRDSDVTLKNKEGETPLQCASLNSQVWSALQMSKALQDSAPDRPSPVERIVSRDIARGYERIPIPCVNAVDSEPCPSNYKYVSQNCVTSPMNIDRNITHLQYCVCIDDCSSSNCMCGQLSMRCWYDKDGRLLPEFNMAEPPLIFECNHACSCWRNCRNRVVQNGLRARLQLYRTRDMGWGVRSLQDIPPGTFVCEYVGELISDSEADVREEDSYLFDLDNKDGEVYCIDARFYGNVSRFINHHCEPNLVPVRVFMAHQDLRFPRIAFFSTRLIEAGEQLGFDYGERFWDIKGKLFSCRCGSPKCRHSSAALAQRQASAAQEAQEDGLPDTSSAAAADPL

B1: PRMT3 (protein, UniProt O60678 2-531, looked up)
Protein arginine …: CSLASGATGGRGAVENEEDLPELSDSGDEAAWEDEDDADLPHGKQQTPCLFCNRLFTSAEETFSHCKSEHQFNIDSMVHKHGLEFYGYIKLINFIRLKNPTVEYMNSIYNPVPWEKEEYLKPVLEDDLLLQFDVEDLYEPVSVPFSYPNGLSENTSVVEKLKHMEARALSAEAALARAREDLQKMKQFAQDFVMHTDVRTCSSSTSVIADLQEDEDGVYFSSYGHYGIHEEMLKDKIRTESYRDFIYQNPHIFKDKVVLDVGCGTGILSMFAAKAGAKKVLGVDQSEILYQAMDIIRLNKLEDTITLIKGKIEEVHLPVEKVDVIISEWMGYFLLFESMLDSVLYAKNKYLAKGGSVYPDICTISLVAVSDVNKHADRIAFWDDVYGFKMSCMKKAVIPEAVVEVLDPKTLISEPCGIKHIDCHTTSISDLEFSSDFTLKITRTSMCTAIAGYFDIYFEKNCHNRVVFSTGPQSTKTHWKQTVFLLEKPFSVKAGEALKGKVTVHKNKKDPRSLTVTLTLNNSTQTYGLQ
B2: THYN1 (protein, UniProt Q9P016 1-225, looked up)
Thymocyte nuclear protein 1: MSRPRKRLAGTSGSDKGLSGKRTKTENSGEALAKVEDSNPQKTSATKNCLKNLSSHWLMKSEPESRLEKGVDVKFSIEDLKAQPKQTTCWDGVRNYQARNFLRAMKLGEEAFFYHSNCKEPGIAGLMKIVKEAYPDHTQFEKNNPHYDPSSKEDNPKWSMVDVQFVRMMKRFIPLAELKSYHQAHKATGGPLKNMVLFTRQRLSIQPLTQEEFDFVLSLEEKEPS
B3: MCM5 (protein, UniProt P33992 2-734, looked up)
DNA replication licensing …: SGFDDPGIFYSDSFGGDAQADEGQARKSQLQRRFKEFLRQYRVGTDRTGFTFKYRDELKRHYNLGEYWIEVEMEDLASFDEDLADYLYKQPAEHLQLLEEAAKEVADEVTRPRPSGEEVLQDIQVMLKSDASPSSIRSLKSDMMSHLVKIPGIIIAASAVRAKATRISIQCRSCRNTLTNIAMRPGLEGYALPRKCNTDQAGRPKCPLDPYFIMPDKCKCVDFQTLKLQELPDAVPHGEMPRHMQLYCDRYLCDKVVPGNRVTIMGIYSIKKFGLTTSRGRDRVGVGIRSSYIRVLGIQVDTDGSGRSFAGAVSPQEEEEFRRLAALPNVYEVISKSIAPSIFGGTDMKKAIACLLFGGSRKRLPDGLTRRGDINLLMLGDPGTAKSQLLKFVEKCSPIGVYTSGKGSSAAGLTASVMRDPSSRNFIMEGGAMVLADGGVVCIDEFDKMREDDRVAIHEAMEQQTISIAKAGITTTLNSRCSVLAAANSVFGRWDETKGEDNIDFMPTILSRFDMIFIVKDEHNEERDVMLAKHVITLHVSALTQTQAVEGEIDLAKLKKFIAYCRVKCGPRLSAEAAEKLKNRYIIMRSGARQHERDSDRRSSIPITVRQLEAIVRIAEALSKMKLQPFATEADVEEALRLFQVSTLDAALSGTLSGVEGFTSQEDQEMLSRIEKQLKRRFAIGSQVSEHSIIKDFTKQKYPEHAIHKVLQLMLRRGEIQHRMQRKVLYRLK
B4: CGGBP1 (protein, UniProt Q9UFW8 1-167, looked up)
CGG triplet repeat-binding …: MERFVVTAPPARNRSKTALYVTPLDRVTEFGGELHEDGGKLFCTSCNVVLNHVRKSAISDHLKSKTHTKRKAEFEEQNVRKKQRPLTASLQCNSTAQTEKVSVIQDFVKMCLEANIPLEKADHPAVRAFLSRHVKNGGSIPKSDQLRRAYLPDGYENENQLLNSQDC
B5: GAPDHS (protein, UniProt O14556 1-408, looked up)
Glyceraldehyde-3-phosphate …: MSKRDIVLTNVTVVQLLRQPCPVTRAPPPPEPKAEVEPQPQPEPTPVREEIKPPPPPLPPHPATPPPKMVSVARELTVGINGFGRIGRLVLRACMEKGVKVVAVNDPFIDPEYMVYMFKYDSTHGRYKGSVEFRNGQLVVDNHEISVYQCKEPKQIPWRAVGSPYVVESTGVYLSIQAASDHISAGAQRVVISAPSPDAPMFVMGVNENDYNPGSMNIVSNASCTTNCLAPLAKVIHERFGIVEGLMTTVHSYTATQKTVDGPSRKAWRDGRGAHQNIIPASTGAAKAVTKVIPELKGKLTGMAFRVPTPDVSVVDLTCRLAQPAPYSAIKEAVKAAAKGPMAGILAYTEDEVVSTDFLGDTHSSIFDAKAGIALNDNFVKLISWYDNEYGYSHRVVDLLRYMFSRDK

What was measured:
G9a and GLP = molecular target: T1, G9a and GLP; assay: Triple SILAC pull-down after UNC0638 treatment of 293T cells, DMSO/UNC0638 ratio of protein captured by 3×MBT; assay type: cell-based; set-up: cells were treated for 24 hours with UNC0638 at 2.5 μM or DMSO vehicle control; endogenous in cells; host or cells: HEK 293T; conditions: for Relative to UNC0638 UNC Heavy: UNC0638 in heavy SILAC media; for Relative to UNC0638 UNC Light: UNC0638 in light SILAC media; for Relative to UNC0638 Average: average of UNC Light and UNC Heavy experiments;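 on all read-outs here: mass spectrometry (Q-Exactive) SILAC quantitation, DMSO/UNC0638 ratio computed after subtracting 3×MBTD355N mutant pull-down background, only proteins with at least twofold 3×MBT over mutant signal considered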
3×MBT domain of L3MBTL1 = assay: Triple SILAC pull-down, 3xMBT/3xMBTD355N ratio (cytoplasmic, nuclear and chromatin fractions of 293T cells); assay type: binding, human; conditions: for 3xMBT/D355N UNC Heavy: experiment with UNC0638 in heavy SILAC media; for 3xMBT/D355N UNC Light: experiment with UNC0638 in light SILAC media;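 on all read-outs here: proteins quantified with MaxQuant, requiring at least two unique peptides and quantification in both label directions, normalized to the mean of proteins from a digested loading control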
[1] = SILAC ratio DMSO relative to UNC0638, pull-down with 3xMBT, all values in log base 2
[2] = SILAC ratio 3xMBT vs 3xMBTD355N pull-down, 293T cells, all values in log base 2
[3] = SILAC ratio DMSO/UNC0638 of protein pulled down with 3xMBT
[4] = SILAC ratio, pull-down 3xMBT vs 3xMBTD355N

Row | Molecule | Relative to UNC0638 UNC Heavy (G9a and GLP; [1]) [log base 2] | Relative to UNC0638 UNC Light (G9a and GLP; [1]) [log base 2] | Relative to UNC0638 Average (G9a and GLP; all values in log base 2) [log base 2] | 3xMBT/D355N UNC Heavy (3×MBT domain of L3MBTL1; [2]) [log base 2] | 3xMBT/D355N UNC Light (3×MBT domain of L3MBTL1; [2]) [log base 2] | Relative to UNC0638 UNC Heavy (G9a and GLP; [3]) [log base 2] | Relative to UNC0638 UNC Light (G9a and GLP; [3]) [log base 2] | Relative to UNC0638 Average (G9a and GLP) [log base 2] | 3xMBT/D355N UNC Heavy (3×MBT domain of L3MBTL1; [4]) [log base 2] | 3xMBT/D355N UNC Light (3×MBT domain of L3MBTL1; [4]) [log base 2]
1 | B1 | 0.13 | 0.07 | 0.10 | 1.71 | 2.05 | – | – | – | – | –
2 | B2 | −0.01 | 0.18 | 0.09 | 2.42 | 2.85 | – | – | – | – | –
3 | B3 | 0.18 | 0.03 | 0.10 | 2.23 | 2.79 | – | – | – | – | –
4 | B4 | 0.05 | 0.12 | 0.09 | 2.44 | 2.49 | – | – | – | – | –
5 | B5 | – | – | – | – | – | 3.21 | −2.20 | 0.50 | 3.31 | 1.73
